In the RNAGym collection of RNA variant scans (doi:10.1093/molbev/msab373):

B1: Azoarcus group I ribozyme (parent)
chain: GUGCCUUGCGCCGGGAAACCACGCAAGGGAUGGUGUCAAAUUCGGCGAAACCUAAGCGCCCGCCCGGGCGUAUGGCAACGCCGAGCCAAGCUUCGGCGCCUGCGCCGAUGAAGGUGUAGAGACUAGACGGCACCCACCUAAGGCAAACGCUAUGGUGAAGGCAUAGUCCAGGGAGUGGCGAAAGUCACACAAACCGG

Variants of: B1
Test: reverse-splicing fitness (ratio to wild type); higher = more active; in vitro selection; Mg2+ level not given
In short: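 An in vitro group I ribozyme library with randomized positions was T7-transcribed and gel-purified. In triplicate, 10 pmol RNA in EPPS pH 7.5 was reacted with 50 pmoles of a 30-nt RNA substrate for 1 h at 37 °C across several added MgCl2 levels (1–48 mM), then stopped with EDTA. Products were reverse transcribed from a substrate-complementary primer, PCR-amplified and sequenced (HiSeq 4000). Fitness is a variant's read proportion after selection over that before, normalised to wild type.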

| Variant | reverse-splicing fitness |
| --- | --- |
| C82G A111C A120C A145G C169U U176G | 0.00614 |
| C82G A111C A120C A145G C169U U176C | 0.0158 |
| C82G A111C A120C A145G C169U U176A | 0.0139 |
| C82A C150A C169U U176C | 0.0166 |
| C82A C150A C169U U176G | 0.00672 |
| C82A C150A C169U U176A | 0.0152 |
| C82A A145U U176G | 0.157 |
| C82A A145U U176C | 0.482 |
| C82A A145U U176A | 0.386 |
| C82A A145G C150U C169U U176C | 0.0136 |
| C82A A145G C150U C169U U176G | 0.00555 |
| C82A A145G C150U C169U U176A | 0.0129 |
| C82A A145G C150U | 0.544 |
| C82A A145G C150G C169U | 0.00998 |
| C82A A145G C150G C169G | 0.00856 |
| C82G A111C A120C A145C U176G | 0.00711 |
| C82G A111C A120C A145C U176C | 0.0241 |
| C82G A111C A120C A145C U176A | 0.0166 |
| C82G A111C A120C A145G C150G C169A | 0.00885 |
| C82G A111C A120C A145G C150G C169G | 0.00708 |
| C82G A111C A120C A145G C150G C169U | 0.00874 |

| Variant | reverse-splicing fitness |
| --- | --- |
| C82A A145U C150G C169G U176G | 0.0053 |
| C82A A145U C150G C169G U176A | 0.00926 |
| C82A A145U C150G C169G U176C | 0.00607 |
| C82G A111C A120C A145C C150A C169G U176A | 0.0271 |
| C82G A111C A120C A145C C150A C169G U176G | 0.00758 |
| C82G A111C A120C A145C C150A C169G U176C | 0.0215 |
| C82A A145G C150U C169U | 0.0162 |
| C82A A145G C150U C169A | 0.0115 |
| C82A A145G C150U C169G | 0.0117 |
| C82G A111C A120C A145G C150G U176G | 0.00667 |
| C82G A111C A120C A145G C150G U176A | 0.00652 |
| C82G A111C A120C A145G C150G U176C | 0.0113 |
| C82G A111C A120C A145C C150G C169G U176A | 0.00984 |
| C82G A111C A120C A145C C150G C169G U176C | 0.00983 |
| C82G A111C A120C A145C C150G C169G U176G | 0.00608 |
| C82A A145G C150U U176C | 0.363 |
| C82A A145G C150U U176G | 0.0838 |
| C82A A145G C150U U176A | 0.287 |
| C82A A145U C169G U176C | 0.0127 |
| C82A A145U C169G U176G | 0.00461 |
| C82A A145U C169G U176A | 0.0105 |
